The text below walks through data of patent US20040224408A1, “THAP proteins as nuclear receptors for chemokines and roles in transcriptional regulation, cell proliferation and cell differentiation” (published 2004).

The chains are these.
B2: human THAP1 (THanatos (death)-Associated Protein-1), full length (other)
chain: MVQSCSAYGCKNRYDKDKPVSFHKFPLTRPSLCKEWEAAVRRKNFKPTKYSSICSEHFTPDCFKRECNNKLLKENAVPTIFLCTEPHDKKEDLLEPQEQLPPPPLPPPVSQVDAAIGLLMPPLQTPVNLSVFCDHNYTVEDTMHQRKRIHQLEQQVEKLRKKLKTAQQRCRRQERQLEKLKEVVHFQKEKDDVSERGYVILPNDYFEIVEVPA
notes: It was tested as a Gal4-BD (pGBKT7) or Gal4-AD (pGADT7); also called hTHAP1; FLJ10477

Assay [1] concerns the target T1, THAP1-C1 deletion mutant (amino acids 90-213) (human, UniProt Q9NVV9 90-213).
T1 construct: Tested as a Gal4-BD or Gal4-AD fusion, as in vitro translated 35S-labelled protein and as an EGFP fusion; also called THAP1ΔTHAP; THAP1?THAP
T1 sequence: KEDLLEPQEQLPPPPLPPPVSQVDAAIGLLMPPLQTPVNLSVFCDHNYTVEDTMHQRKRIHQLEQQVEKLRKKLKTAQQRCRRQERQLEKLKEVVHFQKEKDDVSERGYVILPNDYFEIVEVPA
Kind of assay: yeast two-hybrid, pGADT7-THAP1 mutant with pGBKT7-SLC/CCL21. The procedure: (§1) Two-hybrid interaction between THAP1 mutants and chemokine SLC/CCL21 was tested by cotransformation of AH109 with pGADT7-THAP1-C1, -C2, -C3, -N1, -N2 or -N3 and pGBKT7-SLC/CCL21 and selection of transformants by His and Ade double auxotrophy according to manufacturer's instructions ([…] two-hybrid system 3, Clontech). pGBKT7-SLC/CCL21 vector was generated by subcloning the BamHI SLC/CCL21 fragment from pGBT9-SLC (see example 1) into the unique BamHI cloning site of vector pGBKT7 (Clontech).

Assay [2] deals with T2, THAP1-N2 deletion mutant (amino acids 1-166) (human, UniProt Q9NVV9 1-166).
T2 construct: Tested as a Gal4-BD or Gal4-AD fusion, as in vitro translated 35S-labelled protein and as an EGFP fusion
T2 sequence: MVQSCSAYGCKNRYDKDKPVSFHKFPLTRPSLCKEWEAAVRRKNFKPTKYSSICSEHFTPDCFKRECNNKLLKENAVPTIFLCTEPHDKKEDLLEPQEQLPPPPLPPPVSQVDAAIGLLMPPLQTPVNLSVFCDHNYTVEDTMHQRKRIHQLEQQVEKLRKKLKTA
The assay is described as above. The procedure: as §1

The target of assay [3] is T3, THAP1-N3 deletion mutant (amino acids 1-192) (human, UniProt Q9NVV9 1-192).
T3 construct: Tested as a Gal4-BD or Gal4-AD fusion, as in vitro translated 35S-labelled protein and as an EGFP fusion
T3 sequence: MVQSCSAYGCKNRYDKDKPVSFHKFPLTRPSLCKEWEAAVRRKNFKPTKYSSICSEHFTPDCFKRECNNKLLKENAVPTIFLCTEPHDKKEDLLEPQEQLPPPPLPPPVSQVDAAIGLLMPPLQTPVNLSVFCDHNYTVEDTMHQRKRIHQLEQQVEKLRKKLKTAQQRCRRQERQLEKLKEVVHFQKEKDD
Described as above. The procedure: as §1

For assay [4], the target named is T4, Glutathione S-transferase (GST) control protein (pGEX-2T) (UniProt P08515 1-218 = GST).
T4 construct: Negative control immobilized on glutathione sepharose; also called GST beads; immobilized GST alone
T4 sequence (P08515 whole entry): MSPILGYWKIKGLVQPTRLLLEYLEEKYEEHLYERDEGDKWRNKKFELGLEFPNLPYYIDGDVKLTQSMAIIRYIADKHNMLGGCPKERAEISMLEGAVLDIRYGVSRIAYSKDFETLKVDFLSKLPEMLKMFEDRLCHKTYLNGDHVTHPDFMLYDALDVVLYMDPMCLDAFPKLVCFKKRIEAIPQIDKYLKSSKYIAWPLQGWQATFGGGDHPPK
The experiment in a line: GST pull-down, immobilized GST control, in vitro translated 35S-labelled SLC/CCL21.

The target of the assay “human THAP1 (THanatos …)” is B2. Kind of assay: yeast two-hybrid screen of the pGAD424-HEVEC cDNA library with pGBT9-SLC bait (His selection). The text has this:
In an effort to define the function of novel HEVEC proteins and the cellular pathways involved, we used different baits to screen a two-hybrid cDNA library generated from microvascular human HEV endothelial cells (HEVEC). HEVEC were purified from human tonsils by immunomagnetic selection with monoclonal antibody MECA-79 as previously described (Girard and Springer (1995) Immunity 2:113-123). The SMART PCR cDNA library Construction Kit (Clontech, Palo Alto, Calif., USA) was first used to generate full-length cDNAs from 1 μg HEVEC total RNA. Oligo-dT-primed HEVEC cDNA were then digested with SfiI and directionally cloned into pGAD424-Sfi, a two-hybrid vector generated by inserting a SfiI linker (5′-[…]-3′) (SEQ ID NO: 181) between EcoRI and BamHI cloning sites of pGAD424 (Clontech). The resulting pGAD424-HEVEC cDNA two-hybrid library (mean insert size>1 kb, ˜3×10⁶ independant clones) was amplified in E. coli. […]

Assay [5] deals with T5, Par4 deletion mutant lacking the leucine zipper/death domain (amino acids 1-276) (human, UniProt Q96IZ0 1-274).
T5 construct: Tested as a Gal4-BD or Gal4-AD fusion in yeast two-hybrid; also called Par4A; Par4Δ
T5 sequence: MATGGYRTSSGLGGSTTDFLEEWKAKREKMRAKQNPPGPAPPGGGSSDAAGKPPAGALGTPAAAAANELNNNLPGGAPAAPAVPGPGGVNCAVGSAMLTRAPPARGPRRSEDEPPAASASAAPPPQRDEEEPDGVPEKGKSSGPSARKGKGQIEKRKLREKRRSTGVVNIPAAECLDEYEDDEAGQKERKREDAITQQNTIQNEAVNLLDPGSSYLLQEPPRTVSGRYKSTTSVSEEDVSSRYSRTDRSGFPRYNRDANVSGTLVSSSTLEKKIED
The experiment in a line: yeast two-hybrid (His/Ade selection). The text has this: We then examined whether the leucine zipper/death domain at the C-terminus of Par4, previously shown to be involved in Par4 binding to WT-1 and aPKC, was required for the interaction between THAP1 and Par4. Two Par4 mutants were constructed for that purpose, Par4A and Par4DD. Par4A lacks the leucine zipper/death domain while Par4DD contains this domain. pGBKT7-Par4A(amino acids 1-276) and pGADT7-Par4A. were constructed by sub-cloning a EcoRI-BglII fragment from pGADT7-Par4 into the EcoRI and BamHI sites of pGBKT7 and pGADT7. Par4DD (amino acids 250-342) was amplified by PCR, using pGBKT7-Par4 as template, with primers Par4.4 (5′-[…]-3′) (SEQ ID NO: 193) and Par4.5, and cloned into the EcoRI and BamHI sites of pGBKT7 and pGADT7 to obtain pGBKT7-Par4DD and pGADT7-Par4DD. Two-hybrid interaction between THAP1 and Par4 mutants was tested by cotransformation of AH109 with pGBKT7-THAP1 and pGADT7-Par4A or pGADT7-Par4DD and selection of transformants by His and Ade double auxotrophy according to manufacturer's instructions ([…] two-hybrid system 3, Clontech). […] Similar results were obtained when two-hybrid experiments were performed in the opposite orientation using Par4 or Par4 mutants (Par4A and Par4DD) as baits instead of THAP1 (FIG. 3A).

Assay [6] deals with T4, Glutathione S-transferase (GST) control …. Kind of assay: GST pull-down, immobilized GST control, in vitro translated 35S-labelled THAP1. Here is the method: To confirm the interaction observed in yeast, we performed in vitro GST pull down assays. Par4DD, expressed as a GST-tagged fusion protein and immobilized on glutathione sepharose, was incubated with radiolabeled in vitro translated THAP1. To generate the GST-Par4DD expression vector, Par4DD (amino acids 250-342) was amplified by PCR with primers Par4.10 (5′-[…]-3′) (SEQ ID NO: 194) and Par4.5, and cloned in frame downstream of the Glutathion S-Transferase ORF, into the BamHI site of the pGEX-2T prokaryotic expression vector (Amersham Pharmacia Biotech, Saclay, France). GST-Par4DD(amino acids 250-342) fusion protein encoded by plasmid pGEX-2T-Par4DD and control GST protein encoded by plasmid pGEX-2T, were then expressed in E. Coli DH5α and purified by affinity chromatography with glutathione sepharose according to supplier's instructions (Amersham Pharmacia Biotech). The yield of proteins used in GST pull-down assays was determined by SDS-Polyarylamide Gel Electrophoresis (PAGE) and Coomassie blue staining analysis. In vitro-translated THAP1 was generated with the TNT-coupled reticulocyte lysate system (Promega, Madison, Wis., USA) using pGBKT7-THAP1 vector as template. […]

B1: human chemokine SLC/CCL21, mature form (amino acids 24-134) (ligand)
chain: SDGGAQDCCLKYSQRKIPAKVVRSYRKQEPSLGCSIPAILFLPRKRSQAELCADPKELWVQQLMQHLDKTPSPQKPAQGCRKDRGASKTGKKGKGSKGCKRTERSQTPKGP
notes: also called SLC/6Ckine; SLC/CCL21 wild type
As for B1, the binding result is given as “binds” in assay [1]; “no binding” in assay [2]; “no binding” in assay [3]; “no binding” in assay [4]; “binds” with human THAP1 (THanatos …).
Take B2: the binding result in assay [5] and in assay [6] was “no binding” in each case.
